Patent publication US20160257957

How the values were obtained:
[1] = target: T1, Arc C-terminal protein (132-396 a.a.), Q63053
T1 chain: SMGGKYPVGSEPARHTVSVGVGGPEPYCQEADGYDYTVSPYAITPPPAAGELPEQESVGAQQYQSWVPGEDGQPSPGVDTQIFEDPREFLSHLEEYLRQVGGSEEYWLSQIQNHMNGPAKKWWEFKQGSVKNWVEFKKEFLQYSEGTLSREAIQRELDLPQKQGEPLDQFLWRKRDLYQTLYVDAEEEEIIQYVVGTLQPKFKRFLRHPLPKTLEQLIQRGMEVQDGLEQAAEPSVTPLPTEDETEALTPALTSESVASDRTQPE

[2] = target: T2, HHR23A (recombinant, wild type), P54725
T2 chain: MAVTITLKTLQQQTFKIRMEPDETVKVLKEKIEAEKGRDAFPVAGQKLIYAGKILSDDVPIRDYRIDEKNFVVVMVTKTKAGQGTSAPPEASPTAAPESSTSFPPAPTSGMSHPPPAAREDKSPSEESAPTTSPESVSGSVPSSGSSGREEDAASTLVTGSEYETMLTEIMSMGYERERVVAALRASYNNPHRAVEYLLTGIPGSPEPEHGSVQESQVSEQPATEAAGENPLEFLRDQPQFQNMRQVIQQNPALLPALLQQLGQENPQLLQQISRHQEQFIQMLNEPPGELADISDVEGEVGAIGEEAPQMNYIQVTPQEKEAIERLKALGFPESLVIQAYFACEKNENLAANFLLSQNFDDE

B1: Ube3A (recombinant) (protein)
chain: SGEPQSDDIEASRMKRAAAKHLIERYYHQLTEGCGNEACTNEFCASCPTFLRMDNNAAAIKALELYKINAKLCDPHPSKKGASSAYLENSKGAPNNSCSEIKMNKKGARIDFKDVTYLTEEKVYEILELCREREDYSPLIRVIGRVFSSAEALVQSFRKVKQHTKEELKSLQAKDEDKDEDEKEKAACSAAAMEEDSEASSSRIGDSSQGDNNLQKLGPDDVSVDIDAIRRVYTRLLSNEKIETAFLNALVYLSPNVECDLTYHNVYSRDPNYLNLFIIVMENRNLHSPEYLEMALPLFCKAMSKLPLAAQGKLIRLWSKYNADQIRRMMETFQQLITYKVISNEFNSRNLVNDDDAIVAASKCLKMVYYANVVGGEVDTNHNEEDDEEPIPESSELTLQELLGEERRNKKGPRVDPLETELGVKTLDCRKPLIPFEEFINEPLNEVLEMDKDYTFFKVETENKFSFMTCPFILNAVTKNLGLYYDNRIRMYSERRITVLYSLVQGQQLNPYLRLKVRRDHIIDDALVRLEMIAMENPADLKKQLYVEFEGEQGVDEGGVSKEFFQLVVEEIFNPDIGMFTYDESTKLFWFNPSSFETEGQFTLIGIVLGLAIYNNCILDVHFPMVVYRKLMGKKGTFRDLGDSHPVLYQSLKDLLEYEGNVEDDMMITFQISQTDLFGNPMMYDLKENGDKIPITNENRKEFVNLYSDYILNKSVEKQFKAFRRGFHMVTNESPLKYLFRPEEIELLICGSRNLDFQALEETTEYDGGYTRDSVLIREFWEIVHSFTDEQKRLFLQFTTGTDRAPVGGLGKLKMIIAKNGPDTERLPTSHTCFNVLLLPEYSSKEKLKERLLKAITYAKGFGML
in vitro ubiquitination assay using purified recombinant proteins [1]: Ube3A ubiquitinated Arc in vitro
ubiquitination of HHR23A by Ube3A [2]: this domain is required for Ube3A to ubiquitinate HHR23A
